According to patent publication US20200377590A1 (Hoffmann-La Roche, published 2020):

T1: CD81 (UniProt P60033 1-236, limits assumed)
T1 construct: whole, on cells; also called CD81 receptor
T1 sequence (looked up): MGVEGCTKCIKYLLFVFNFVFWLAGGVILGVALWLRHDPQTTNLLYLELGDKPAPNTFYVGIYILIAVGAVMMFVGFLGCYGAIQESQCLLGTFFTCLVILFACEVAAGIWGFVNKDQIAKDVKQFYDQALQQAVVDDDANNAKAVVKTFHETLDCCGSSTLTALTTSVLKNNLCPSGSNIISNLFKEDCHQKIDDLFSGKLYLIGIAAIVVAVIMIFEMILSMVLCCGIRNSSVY

B1: CD81K13 HC 01-hVH_1_f / LC 1b-hVK_3_15 (antibody, V domains shown)
VH: EVQLVQSGAEVKKPGATVKISCKVSGYTFTDSYMHWVQQAPGKGLEWMGRIDTGNGNVKFDPKFQGRVTITADTSTDTAYMELSSLRSEDTAVYYCAPYGYGFHSWGQGTLVTVSS
VL: EIVMTQSPATLSVSPGERATLSCRASENIYRTLAWYQQKPGQAPRLLIYGATTLADGIPARFSGSGSGTEFTLTISSLQSEDFAVYYCQHFWGTPWTFGQGTKVEIK
notes: human constant region
B2: CD81K13 HC 01-hVH_1_f / LC 5b-hVK_1_39-GA (antibody, V domains shown)
VH: EVQLVQSGAEVKKPGATVKISCKVSGYTFTDSYMHWVQQAPGKGLEWMGRIDTGNGNVKFDPKFQGRVTITADTSTDTAYMELSSLRSEDTAVYYCAPYGYGFHSWGQGTLVTVSS
VL: DIQMTQSPSSLSASVGDRVTITCRASENIYRTLAWYQQKPGKAPKLLIYGATTLADGVPSRFSGSGSGTDFTLTISSLQPEDFATYYCQHFWGTPWTFGQGTKVEIK
notes: human constant region
B3: CD81K13 HC 01-hVH_1_f / LC 06-hVK_1_39 (antibody, V domains shown)
VH: EVQLVQSGAEVKKPGATVKISCKVSGYTFTDSYMHWVQQAPGKGLEWMGRIDTGNGNVKFDPKFQGRVTITADTSTDTAYMELSSLRSEDTAVYYCAPYGYGFHSWGQGTLVTVSS
VL: DIQMTQSPSSLSASVGDRVTITCRASENIYRTLAWYQQKPGKAPKLLIYAATTLASGVPSRFSGSGSGTDFTLTISSLQPEDFGTYYCQHFWGTPWTFGQGTKVEIK
notes: human constant region
B4: CD81K13 HC 01-hVH_1_f / LC 05-hVK_1_39 (antibody, V domains shown)
VH: EVQLVQSGAEVKKPGATVKISCKVSGYTFTDSYMHWVQQAPGKGLEWMGRIDTGNGNVKFDPKFQGRVTITADTSTDTAYMELSSLRSEDTAVYYCAPYGYGFHSWGQGTLVTVSS
VL: DIQMTQSPSSLSASVGDRVTITCRASENIYRTLAWYQQKPGKAPKLLIYAATTLASGVPSRFSGSGSGTDFTLTISSLQPEDFATYYCQHFWGTPWTFGQGTKVEIK
notes: human constant region
B5: CD81K13 HC 01-hVH_1_f / LC 03-hVK_1_9 (antibody, V domains shown)
VH: EVQLVQSGAEVKKPGATVKISCKVSGYTFTDSYMHWVQQAPGKGLEWMGRIDTGNGNVKFDPKFQGRVTITADTSTDTAYMELSSLRSEDTAVYYCAPYGYGFHSWGQGTLVTVSS
VL: DIQLTQSPSFLSASVGDRVTITCRASENIYRTLAWYQQKPGKAPKLLIYAATTLASGVPSRFSGSGSGTEFTLTISSLQPEDFATYYCQHFWGTPWTFGQGTKVEIK
notes: human constant region
B6: CD81K13 HC 01-hVH_1_f / LC 1c-hVK_3_15 (antibody, V domains shown)
VH: EVQLVQSGAEVKKPGATVKISCKVSGYTFTDSYMHWVQQAPGKGLEWMGRIDTGNGNVKFDPKFQGRVTITADTSTDTAYMELSSLRSEDTAVYYCAPYGYGFHSWGQGTLVTVSS
VL: EIVMTQSPATLSVSPGERATLSCRASENIYRTLAWYQQKPGQAPRLLIYGATTLADGIPARFSGSGSGTEFTLTISSLQSEDFGVYYCQHFWGTPWTFGQGTKVEIK
notes: human constant region
B7: CD81K13 HC 01-hVH_1_f / LC 5b-hVK_1_39 (antibody, V domains shown)
VH: EVQLVQSGAEVKKPGATVKISCKVSGYTFTDSYMHWVQQAPGKGLEWMGRIDTGNGNVKFDPKFQGRVTITADTSTDTAYMELSSLRSEDTAVYYCAPYGYGFHSWGQGTLVTVSS
VL: DIQMTQSPSSLSASVGDRVTITCRASENIYRTLAWYQQKPGKAPKLLIYGATTLADGVPSRFSGSGSGTDFTLTISSLQPEDFATYYCQHFWGTPWTFGQGTKVEIK
notes: human constant region
B8: CD81K13 HC 02-hVH_1_3 / LC 1b-hVK_3_15 (antibody, V domains shown)
VH: QVQLVQSGAEVKKPGASVKVSCKASGYTFTDSYMHWVRQAPGQRLEWMGRIDTGNGNTKYSQKFQGRVTITTDTSASTAYMELSSLRSEDTAVYYCAPYGYGFHSWGQGTLVTVSS
VL: EIVMTQSPATLSVSPGERATLSCRASENIYRTLAWYQQKPGQAPRLLIYGATTLADGIPARFSGSGSGTEFTLTISSLQSEDFAVYYCQHFWGTPWTFGQGTKVEIK
notes: human constant region
B9: CD81K13 HC 02-hVH_1_3 / LC 1c-hVK_3_15 (antibody, V domains shown)
VH: QVQLVQSGAEVKKPGASVKVSCKASGYTFTDSYMHWVRQAPGQRLEWMGRIDTGNGNTKYSQKFQGRVTITTDTSASTAYMELSSLRSEDTAVYYCAPYGYGFHSWGQGTLVTVSS
VL: EIVMTQSPATLSVSPGERATLSCRASENIYRTLAWYQQKPGQAPRLLIYGATTLADGIPARFSGSGSGTEFTLTISSLQSEDFGVYYCQHFWGTPWTFGQGTKVEIK
notes: human constant region
B10: CD81K13 HC 02-hVH_1_3 / LC 01-hVK_3_15 (antibody, V domains shown)
VH: QVQLVQSGAEVKKPGASVKVSCKASGYTFTDSYMHWVRQAPGQRLEWMGRIDTGNGNTKYSQKFQGRVTITTDTSASTAYMELSSLRSEDTAVYYCAPYGYGFHSWGQGTLVTVSS
VL: EIVMTQSPATLSVSPGERATLSCRASENIYRTLAWYQQKPGQAPRLLIYGATTRATGIPARFSGSGSGTEFTLTISSLQSEDFGVYYCQHFWGTPWTFGQGTKVEIK
notes: human constant region
B11: CD81K13 HC 01-hVH_1_f / LC 04-hVK_1_9 (antibody, V domains shown)
VH: EVQLVQSGAEVKKPGATVKISCKVSGYTFTDSYMHWVQQAPGKGLEWMGRIDTGNGNVKFDPKFQGRVTITADTSTDTAYMELSSLRSEDTAVYYCAPYGYGFHSWGQGTLVTVSS
VL: DIQLTQSPSFLSASVGDRVTITCRASENIYRTLAWYQQKPGKAPKLLIYAATTLASGVPSRFSGSGSGTEFTLTISSLQPEDFGTYYCQHFWGTPWTFGQGTKVEIK
notes: human constant region
B12: CD81K13 HC 01-hVH_1_f / LC 07-hVK_1_27 (antibody, V domains shown)
VH: EVQLVQSGAEVKKPGATVKISCKVSGYTFTDSYMHWVQQAPGKGLEWMGRIDTGNGNVKFDPKFQGRVTITADTSTDTAYMELSSLRSEDTAVYYCAPYGYGFHSWGQGTLVTVSS
VL: DIQMTQSPSSLSASVGDRVTITCRASENIYRTLAWYQQKPGKVPKLLIYAATTLASGVPSRFSGSGSGTDFTLTISSLQPEDVGTYYCQKFWGTPWTFGQGTKVEIK
notes: human constant region
B13: CD81K13 HC 02-hVH_1_3 / LC CD81K13 (antibody, V domains shown)
VH: QVQLVQSGAEVKKPGASVKVSCKASGYTFTDSYMHWVRQAPGQRLEWMGRIDTGNGNTKYSQKFQGRVTITTDTSASTAYMELSSLRSEDTAVYYCAPYGYGFHSWGQGTLVTVSS
VL: DIQMTQSPASLSVSVGETVTITCRASENIYRTLAWYLQKQGKSPQLLVYGATTLADGVPSRFSGSGSGTQYYLKINSLQSEDFGTYHCQHFWGTPWTFGGGTKVEIK
notes: human constant region
B14: CD81K13 HC 02-hVH_1_3 / LC 5b-hVK_1_39-GA (antibody, V domains shown)
VH: QVQLVQSGAEVKKPGASVKVSCKASGYTFTDSYMHWVRQAPGQRLEWMGRIDTGNGNTKYSQKFQGRVTITTDTSASTAYMELSSLRSEDTAVYYCAPYGYGFHSWGQGTLVTVSS
VL: DIQMTQSPSSLSASVGDRVTITCRASENIYRTLAWYQQKPGKAPKLLIYGATTLADGVPSRFSGSGSGTDFTLTISSLQPEDFATYYCQHFWGTPWTFGQGTKVEIK
notes: human constant region
B15: CD81K13 HC 02-hVH_1_3 / LC 5b-hVK_1_39 (antibody, V domains shown)
VH: QVQLVQSGAEVKKPGASVKVSCKASGYTFTDSYMHWVRQAPGQRLEWMGRIDTGNGNTKYSQKFQGRVTITTDTSASTAYMELSSLRSEDTAVYYCAPYGYGFHSWGQGTLVTVSS
VL: DIQMTQSPSSLSASVGDRVTITCRASENIYRTLAWYQQKPGKAPKLLIYGATTLADGVPSRFSGSGSGTDFTLTISSLQPEDFATYYCQHFWGTPWTFGQGTKVEIK
notes: human constant region
B16: CD81K13 HC 02-hVH_1_3 / LC 06-hVK_1_39 (antibody, V domains shown)
VH: QVQLVQSGAEVKKPGASVKVSCKASGYTFTDSYMHWVRQAPGQRLEWMGRIDTGNGNTKYSQKFQGRVTITTDTSASTAYMELSSLRSEDTAVYYCAPYGYGFHSWGQGTLVTVSS
VL: DIQMTQSPSSLSASVGDRVTITCRASENIYRTLAWYQQKPGKAPKLLIYAATTLASGVPSRFSGSGSGTDFTLTISSLQPEDFGTYYCQHFWGTPWTFGQGTKVEIK
notes: human constant region
B17: CD81K13 HC 02-hVH_1_3 / LC 04-hVK_1_9 (antibody, V domains shown)
VH: QVQLVQSGAEVKKPGASVKVSCKASGYTFTDSYMHWVRQAPGQRLEWMGRIDTGNGNTKYSQKFQGRVTITTDTSASTAYMELSSLRSEDTAVYYCAPYGYGFHSWGQGTLVTVSS
VL: DIQLTQSPSFLSASVGDRVTITCRASENIYRTLAWYQQKPGKAPKLLIYAATTLASGVPSRFSGSGSGTEFTLTISSLQPEDFGTYYCQHFWGTPWTFGQGTKVEIK
notes: human constant region
B18: CD81K13 HC 02-hVH_1_3 / LC 03-hVK_1_9 (antibody, V domains shown)
VH: QVQLVQSGAEVKKPGASVKVSCKASGYTFTDSYMHWVRQAPGQRLEWMGRIDTGNGNTKYSQKFQGRVTITTDTSASTAYMELSSLRSEDTAVYYCAPYGYGFHSWGQGTLVTVSS
VL: DIQLTQSPSFLSASVGDRVTITCRASENIYRTLAWYQQKPGKAPKLLIYAATTLASGVPSRFSGSGSGTEFTLTISSLQPEDFATYYCQHFWGTPWTFGQGTKVEIK
notes: human constant region
B19: CD81K13 HC 05-hVH_1_69 / LC CD81K13 (antibody, V domains shown)
VH: QVQLVQSGAEVKKPGSSVKVSCKASGFNFKDSYLHWVRQAPGQGLEWMGRIDTGNGNVKFDPKFQGRVTITTDESTSTAYMELSSLRSEDTAVYYCVPYGYGFHSWGQGTLVTVSS
VL: DIQMTQSPASLSVSVGETVTITCRASENIYRTLAWYLQKQGKSPQLLVYGATTLADGVPSRFSGSGSGTQYYLKINSLQSEDFGTYHCQHFWGTPWTFGGGTKVEIK
notes: human constant region
B20: CD81K13 HC 02-hVH_1_3 / LC 05-hVK_1_39 (antibody, V domains shown)
VH: QVQLVQSGAEVKKPGASVKVSCKASGYTFTDSYMHWVRQAPGQRLEWMGRIDTGNGNTKYSQKFQGRVTITTDTSASTAYMELSSLRSEDTAVYYCAPYGYGFHSWGQGTLVTVSS
VL: DIQMTQSPSSLSASVGDRVTITCRASENIYRTLAWYQQKPGKAPKLLIYAATTLASGVPSRFSGSGSGTDFTLTISSLQPEDFATYYCQHFWGTPWTFGQGTKVEIK
notes: human constant region
B21: CD81K13 HC 03-hVH_1_69 / LC CD81K13 (antibody, V domains shown)
VH: QVQLVQSGAEVKKPGSSVKVSCKASGFNFKDSYLHWVRQAPGQGLEWMGRIDTGNGNVKYAQKFQGRVTITADESTSTAYMELSSLRSEDTAVYYCAPYGYGFHSWGQGTLVTVSS
VL: DIQMTQSPASLSVSVGETVTITCRASENIYRTLAWYLQKQGKSPQLLVYGATTLADGVPSRFSGSGSGTQYYLKINSLQSEDFGTYHCQHFWGTPWTFGGGTKVEIK
notes: human constant region

Molecular target: T1, CD81
Experiment: cell ELISA;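 note: antibody binding to HuH7 cells expressing CD81 versus a CD81-negative HuH7 control line, bound antibody detected by secondary reagent, absorbance at 450 nm with 620 nm reference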
Experimental: For the binding cell ELISA assay, HuH7-Rluc-H3 (positive cell line expressing CD81) and HuH7-Rluc-L1 (negative control cell line) were propagated in F-12 DMEM medium with 10% FCS at 37° C. and 5% CO₂. On day 1, the cells were trypsinized at approximately 90% confluence and resuspended at 4×10⁵ cells/mL. […] On day 2, the antibody samples to be tested were prepared in a separate polypropylene round bottom plate with a twofold desired concentration with a final volume of 120 μl. All of the assay samples were diluted in cell culture medium. […] After fixation, each well was washed 3 times with 200 μL PBS/0.05% Tween. The secondary incubation step for detection of bound anti-CD81 antibodies was performed for 2 h at room temperature on a reciprocal shaker. […] Each well was washed three times with 200 μL PBS/0.05% Tween to remove unbound antibodies. […] The absorbance was read using the ELISA Tecan reader at 450 nm with 620 nm reference wavelength.

For B1, which ELISA data is on record?
The ELISA data was 0.392.

Which ELISA data does the source give for B2 here?
Its ELISA data is 0.848.

B3 was tested. Which ELISA data did it give?
Its ELISA data is 0.822.

B4 was tested. Which ELISA data did it give?
The ELISA data was 0.458.

For B5, which ELISA data is on record?
The ELISA data was 0.294.

Which ELISA data does the source give for B6 here?
The ELISA data was 0.617.

B7 was tested. Which ELISA data did it give?
Its ELISA data is 0.89.

For B8, which ELISA data is on record?
Its ELISA data is 0.347.

B9 was tested. Which ELISA data did it give?
Its ELISA data is 0.283.

For B10, which ELISA data is on record?
Its ELISA data is 0.314.

With B11 as the binder, how does the ELISA data read?
Its ELISA data is 0.244.

Which ELISA data does the source give for B12 here?
The ELISA data was 0.086.

Which ELISA data does the source give for B13 here?
The ELISA data was 0.585.

How did the ELISA data turn out when B14 was run?
The ELISA data was 0.247.

For B15, which ELISA data is on record?
The ELISA data was 0.29.

With B16 as the binder, how does the ELISA data read?
Its ELISA data is 0.251.

Which ELISA data does the source give for B17 here?
Its ELISA data is 0.163.

How did the ELISA data turn out when B18 was run?
Its ELISA data is 0.13.

Which ELISA data does the source give for B19 here?
The ELISA data was 0.94.

B20 was tested. Which ELISA data did it give?
The ELISA data was 0.161.

With B21 as the binder, how does the ELISA data read?
Its ELISA data is 0.787.
